Test results taken from patent publication US20230002480A1.

How the values were obtained:
Assay in all cases: cell-based or functional assay
[1] = biological target: HIV-1 Env of pseudovirus 1056_10_TA11_1826 (HIV-1)
[2] = biological target: HIV-1 Env of pseudovirus P1981_C5_3 (HIV-1)
[3] = biological target: HIV-1 Env of pseudovirus C1080.c03 (HIV-1)
[4] = biological target: HIV-1 Env of pseudovirus CAP210.2.00.E8 (HIV-1)
[5] = biological target: HIV-1 Env of pseudovirus WITO4160.33 (HIV-1)
[6] = biological target: HIV-1 Env of pseudovirus BJOX025000.01.1 (HIV-1)
[7] = biological target: HIV-1 Env of pseudovirus ZM109F.PB4 (HIV-1)
[8] = biological target: HIV-1 Env of pseudovirus CNE58 (HIV-1)
[9] = biological target: HIV-1 Env of pseudovirus ZM249M.PL1 (HIV-1)
[10] = biological target: HIV-1 Env of pseudovirus BJOX015000.11.5 (HIV-1)
[11] = biological target: HIV-1 Env of pseudovirus Ce0682_E4 (HIV-1)
[12] = biological target: HIV-1 Env of pseudovirus C3347.c11 (HIV-1)
[13] = biological target: HIV-1 Env of pseudovirus BF1266.431a (HIV-1)
[14] = biological target: HIV-1 Env of pseudovirus 6480.v4.c25 (HIV-1)
[15] = biological target: HIV-1 Env of pseudovirus T251-18 (HIV-1)
[16] = biological target: HIV-1 Env of pseudovirus 6952.v1.c20 (HIV-1)
[17] = biological target: HIV-1 Env of pseudovirus 62357_14_D3_4589 (HIV-1)
[18] = biological target: HIV-1 Env of pseudovirus Ce1086_B2 (HIV-1)
[19] = biological target: HIV-1 Env of pseudovirus Ce0393_C3 (HIV-1)
[20] = biological target: HIV-1 Env of pseudovirus Ce2010_F5 (HIV-1)
[21] = biological target: HIV-1 Env of pseudovirus SC422661.8 (HIV-1)
[22] = biological target: HIV-1 Env of pseudovirus 9004SS_A3_4 (HIV-1)
[23] = biological target: HIV-1 Env of pseudovirus Q769.d22 (HIV-1)
[24] = biological target: HIV-1 Env of pseudovirus 6811.v7.c18 (HIV-1)
[25] = biological target: HIV-1 Env of pseudovirus 231965.c01 (HIV-1)
[26] = biological target: HIV-1 Env of pseudovirus TRJO4551.58 (HIV-1)
[27] = biological target: HIV-1 Env of pseudovirus R2184.c04 (HIV-1)
[28] = biological target: HIV-1 Env of pseudovirus ZM53M.PB12 (HIV-1)
[29] = biological target: HIV-1 Env of pseudovirus HIV-16055-2.3 (HIV-1)
[30] = biological target: HIV-1 Env of pseudovirus X2131_C1_B5 (HIV-1)
[31] = biological target: HIV-1 Env of pseudovirus ZM197M.PB7 (HIV-1)
[32] = biological target: HIV-1 Env of pseudovirus 249M B10 (HIV-1)
[33] = biological target: HIV-1 Env of pseudovirus CNE19 (HIV-1)
[34] = biological target: HIV-1 Env of pseudovirus 3301.v1.c24 (HIV-1)
[35] = biological target: HIV-1 Env of pseudovirus 6545.v4.c1 (HIV-1)

## PGT128 (antibody)
[1]
  IC50: < 0.001 mg/L
  IC80: 0.008 mg/L
[2]
  IC50, titer in TZM.bl cells: 0.019 mg/L
  IC80, titer in TZM.bl cells: 0.088 mg/L
[3]
  IC50, titer in TZM.bl cells: 0.283 mg/L
  IC80, titer in TZM.bl cells: 2.06 mg/L
[4]
  IC50: > 50 mg/L
  IC80: > 50 mg/L
[5]
  IC50: > 50 mg/L
  IC80: > 50 mg/L
[6]
  IC50, titer in TZM.bl cells: > 50 mg/L
  IC80, titer in TZM.bl cells: > 50 mg/L
[7]
  IC50: > 50 mg/L
  IC80: > 50 mg/L
[8]
  IC50: 13.8 mg/L
  IC80: > 50 mg/L
[9]
  IC50: 39.7 mg/L
  IC80: > 50 mg/L
[10]
  IC50, titer in TZM.bl cells: 0.001 mg/L
  IC80, titer in TZM.bl cells: 0.011 mg/L
[11]
  IC50: > 50 mg/L
  IC80: > 50 mg/L
[12]
  IC50, titer in TZM.bl cells: 0.001 mg/L
  IC80, titer in TZM.bl cells: 0.007 mg/L
[13]
  IC50: > 50 mg/L
  IC80: > 50 mg/L
[14]
  IC50, titer in TZM.bl cells: 0.003 mg/L
  IC80, titer in TZM.bl cells: 0.019 mg/L
[15]
  IC50, titer in TZM.bl cells: > 50 mg/L
  IC80, titer in TZM.bl cells: > 50 mg/L
[16]
  IC50, titer in TZM.bl cells: > 50 mg/L
  IC80, titer in TZM.bl cells: > 50 mg/L
[17]
  IC50: 1.14 mg/L
  IC80: > 50 mg/L
[18]
  IC50: > 50 mg/L
  IC80: > 50 mg/L
[19]
  IC50: > 50 mg/L
  IC80: > 50 mg/L
[20]
  IC50: > 50 mg/L
  IC80: > 50 mg/L
[21]
  IC50: 1.08 mg/L
  IC80: 18.4 mg/L
[22]
  IC50: 0.002 mg/L
  IC80: 0.01 mg/L
[23]
  IC50: > 50 mg/L
  IC80: > 50 mg/L
[24]
  IC50, titer in TZM.bl cells: 0.003 mg/L
  IC80, titer in TZM.bl cells: 0.05 mg/L
[25]
  IC50, titer in TZM.bl cells: > 50 mg/L
  IC80, titer in TZM.bl cells: > 50 mg/L
[26]
  IC50: 0.018 mg/L
  IC80: 0.041 mg/L
[27]
  IC50, titer in TZM.bl cells: 20.1 mg/L
  IC80, titer in TZM.bl cells: > 50 mg/L
[28]
  IC50: > 50 mg/L
  IC80: > 50 mg/L
[29]
  IC50: > 50 mg/L
  IC80: > 50 mg/L
[30]
  IC50, titer in TZM.bl cells: > 50 mg/L
  IC80, titer in TZM.bl cells: > 50 mg/L
[31]
  IC50: > 50 mg/L
  IC80: > 50 mg/L
[32]
  IC50: 7.87 mg/L
  IC80: > 50 mg/L
[33]
  IC50: > 50 mg/L
  IC80: > 50 mg/L
[34]
  IC50, titer in TZM.bl cells: 0.067 mg/L
  IC80, titer in TZM.bl cells: 0.499 mg/L
[35]
  IC50, titer in TZM.bl cells: > 50 mg/L
  IC80, titer in TZM.bl cells: > 50 mg/L

## PGT151 (antibody)
[1]
  IC50: 0.008 mg/L
  IC80: 0.048 mg/L
[2]
  IC50, titer in TZM.bl cells: 0.021 mg/L
  IC80, titer in TZM.bl cells: > 50 mg/L
[3]
  IC50, titer in TZM.bl cells: > 50 mg/L
  IC80, titer in TZM.bl cells: > 50 mg/L
[4]
  IC50: 0.01 mg/L
  IC80: 0.208 mg/L
[5]
  IC50: 0.002 mg/L
  IC80: 0.021 mg/L
[6]
  IC50, titer in TZM.bl cells: > 50 mg/L
  IC80, titer in TZM.bl cells: > 50 mg/L
[7]
  IC50: 0.609 mg/L
  IC80: > 50 mg/L
[8]
  IC50: 0.004 mg/L
  IC80: 0.016 mg/L
[9]
  IC50: 0.004 mg/L
  IC80: 0.015 mg/L
[10]
  IC50, titer in TZM.bl cells: > 50 mg/L
  IC80, titer in TZM.bl cells: > 50 mg/L
[11]
  IC50: > 50 mg/L
  IC80: > 50 mg/L
[12]
  IC50, titer in TZM.bl cells: > 50 mg/L
  IC80, titer in TZM.bl cells: > 50 mg/L
[13]
  IC50: > 50 mg/L
  IC80: > 50 mg/L
[15]
  IC50, titer in TZM.bl cells: 0.327 mg/L
  IC80, titer in TZM.bl cells: > 50 mg/L
[16]
  IC50, titer in TZM.bl cells: 49.2 mg/L
  IC80, titer in TZM.bl cells: > 50 mg/L
[17]
  IC50: 0.004 mg/L
  IC80: 0.023 mg/L
[18]
  IC50: 2.65 mg/L
  IC80: > 50 mg/L
[19]
  IC50: > 50 mg/L
  IC80: > 50 mg/L
[20]
  IC50: > 50 mg/L
  IC80: > 50 mg/L
[21]
  IC50: 0.005 mg/L
  IC80: 0.028 mg/L
[22]
  IC50: 0.003 mg/L
  IC80: 0.015 mg/L
[23]
  IC50: > 50 mg/L
  IC80: > 50 mg/L
[24]
  IC50, titer in TZM.bl cells: > 50 mg/L
  IC80, titer in TZM.bl cells: > 50 mg/L
[25]
  IC50, titer in TZM.bl cells: < 0.001 mg/L
  IC80, titer in TZM.bl cells: 0.012 mg/L
[26]
  IC50: 0.496 mg/L
  IC80: 4.22 mg/L
[27]
  IC50, titer in TZM.bl cells: > 50 mg/L
  IC80, titer in TZM.bl cells: > 50 mg/L
[28]
  IC50: > 50 mg/L
  IC80: > 50 mg/L
[29]
  IC50: 0.143 mg/L
  IC80: > 50 mg/L
[30]
  IC50, titer in TZM.bl cells: 0.007 mg/L
  IC80, titer in TZM.bl cells: 0.036 mg/L
[31]
  IC50: 0.003 mg/L
  IC80: 0.033 mg/L
[32]
  IC50: 0.007 mg/L
  IC80: 0.023 mg/L
[33]
  IC50: 0.014 mg/L
  IC80: > 50 mg/L
[34]
  IC50, titer in TZM.bl cells: 0.002 mg/L
  IC80, titer in TZM.bl cells: 0.019 mg/L
[35]
  IC50, titer in TZM.bl cells: 0.004 mg/L
  IC80, titer in TZM.bl cells: 0.026 mg/L
